# According to paper PMC4160250:
# pKd: −log10 of the molar value.
# Assays:
# [1] = biological target: His-tagged DC-UbP (human) (UniProt Q8WUN7); assay: NMR titration; 15N-labelled DC-UbP (100 uM) titrated stepwise with unlabelled USP5, UbE1, FH or SCCH; 1H-15N HSQC, 20 mM phosphate, 50 mM NaCl, pH 6.5, 298 K
# [2] = biological target: UbP_C (C-terminal part of DC-UbP, residues 129-234), His-tagged (human) (UniProt Q8WUN7); assay: NMR titration; 15N-labelled UbP_C (200 uM; 150 uM for the affinity) titrated with USP5_UBA12 or USP5_ZnF; 1H-15N HSQC, 20 mM phosphate, 50 mM NaCl, pH 6.5, 298 K
# UbP_C (C-terminal part of DC-UbP, residues 129-234), His-tagged (human), sequence (Q8WUN7 129-234): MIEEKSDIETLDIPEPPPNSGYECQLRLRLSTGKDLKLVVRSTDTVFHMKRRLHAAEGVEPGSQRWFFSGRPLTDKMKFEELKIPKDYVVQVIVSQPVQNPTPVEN
# His-tagged DC-UbP (human), sequence (Q8WUN7 whole entry, the tested form may be a part): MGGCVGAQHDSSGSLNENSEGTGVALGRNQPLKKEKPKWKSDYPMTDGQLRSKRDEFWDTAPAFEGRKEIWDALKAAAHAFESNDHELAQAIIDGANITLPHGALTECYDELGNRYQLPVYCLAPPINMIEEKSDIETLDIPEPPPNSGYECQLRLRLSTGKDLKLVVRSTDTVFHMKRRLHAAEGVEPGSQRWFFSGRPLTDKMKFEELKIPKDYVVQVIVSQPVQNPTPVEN
mean relative peak intensity of the UBD domain of DC-UbP at 1:1 molar ratio (free DC-UbP = 1) [1],mean relative peak intensity of the UbL domain of DC-UbP at 1:1 molar ratio (free DC-UbP = 1) [1],pKd [2],Substance
0.56,0.27,,"USP5, recombinant, purified (from UniProt P45974 1-858) (enzyme)"
,,3.40,"USP5_UBA12 (tandem UBA domains of USP5, residues 625-749) (from UniProt P45974 625-749) (domain or fragment)"
